Drawing on publication doi:10.1101/2025.08.13.670122, this text covers Ki, Gαq activation (GABY BRET sensor, HEK293 cells expressing AT1R), EC50 and β-arrestin2 recruitment (BRET, HEK293 cells expressing AT1R), EC50 for 21 substances.

Where two headings read alike, the source gives them in different places.

The target in test [1] is human Angiotensin II Type 1 receptor (human) (UniProt P30556). Nature of the test: radioligand binding.
For test [2] the target is unchanged.
Test [3] has the same target. The source holds these as a separate data set.
Test [4] has the same target. This is another data set of the same source.
Test [5] shares this target. This is another data set of the same source.
For test [6] the target is unchanged. This is another data set of the same source.
Test [7] shares this target. The source holds these as a separate data set.

Chain of human Angiotensin II Type 1 receptor (human) (P30556 whole entry): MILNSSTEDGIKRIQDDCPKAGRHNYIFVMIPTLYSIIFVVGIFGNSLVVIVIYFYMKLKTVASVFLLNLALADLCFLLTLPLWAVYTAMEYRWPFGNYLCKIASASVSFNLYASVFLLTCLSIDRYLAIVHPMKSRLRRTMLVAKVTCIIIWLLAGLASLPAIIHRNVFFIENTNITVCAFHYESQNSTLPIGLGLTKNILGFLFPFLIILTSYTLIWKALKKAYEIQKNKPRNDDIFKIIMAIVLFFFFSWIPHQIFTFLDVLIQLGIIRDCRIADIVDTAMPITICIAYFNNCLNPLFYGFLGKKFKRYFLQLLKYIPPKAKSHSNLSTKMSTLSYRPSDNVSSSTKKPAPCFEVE

In turn, TRV027 (peptide) showed an inhibition constant Ki in test [1] of 6.6 nM. In test [2], “AngII analog 22b ((m-NO2)Phe at position 8) (peptide)” displayed a Gαq activation (GABY BRET sensor, HEK293 cells expressing AT1R), EC50 of 4.4 nM. In test [3], “AngII analog 12 (Tyr(Bzl) at position 8) (peptide)” displayed a Gαq activation (GABY BRET sensor, HEK293 cells expressing AT1R), EC50 of over 10000 nM and a β-arrestin2 recruitment (BRET, HEK293 cells expressing AT1R), EC50 of 2.5 nM.

Consider “AngII analog 28b ((m-Br)Phe at position 8) (peptide)”, for which, in test [2], the Gαq activation (GABY BRET sensor, HEK293 cells expressing AT1R), EC50 came to 1.9 nM. Turning to “AngII analog 24a ((o-OH)Phe at position 8) (peptide)”, the Gαq activation (GABY BRET sensor, HEK293 cells expressing AT1R), EC50 in test [4] turned out to be 2.1 nM. For the substance “AngII analog 15 (Dip at position 8) (peptide)”, the Gαq activation (GABY BRET sensor, HEK293 cells expressing AT1R), EC50 in test [3] worked out at 7.9 nM.

Turning to “AngII analog 24b ((m-OH)Phe at position 8) (peptide)”, the Gαq activation (GABY BRET sensor, HEK293 cells expressing AT1R), EC50 in test [2] was determined as 4.6 nM. “AngII analog 13 (Bip at position 8) (peptide)”: in test [3], the β-arrestin2 recruitment (BRET, HEK293 cells expressing AT1R), EC50 worked out at 15 nM.

“AngII analog 20 (4ThzAla at position 8) (peptide)” had a Gαq activation (GABY BRET sensor, HEK293 cells expressing AT1R), EC50 in test [5] of 14 nM. Regarding “AngII analog 29c ((p-Cl)Phe at position 8) (peptide)”, in test [2], the Gαq activation (GABY BRET sensor, HEK293 cells expressing AT1R), EC50 worked out at 2.5 nM. Same read-out and setting: then “AngII analog 23b ((m-CN)Phe at position 8) (peptide)”, with 5.9 nM. “AngII analog 30c ((p-F)Phe at position 8) (peptide)” came in with a Gαq activation (GABY BRET sensor, HEK293 cells expressing AT1R), EC50 in test [2] of 1.7 nM. In turn, “AngII analog 11 (Tyr(Me) at position 8) (from UniProt P01019)” registered a Ki in test [6] of 0.23 nM. On to “AngII analog 29b ((m-Cl)Phe at position 8) (peptide)”, for which the Gαq activation (GABY BRET sensor, HEK293 cells expressing AT1R), EC50 in test [2] was determined as 1.5 nM. The substance “AngII analog 27b ((m-I)Phe at position 8) (peptide)” had a Gαq activation (GABY BRET sensor, HEK293 cells expressing AT1R), EC50 in test [2] of 4.5 nM. Consider “AngII analog 16 (Ser(Bzl) at position 8) (peptide)”, for which the Gαq activation (GABY BRET sensor, HEK293 cells expressing AT1R), EC50 in test [3] was over 10000 nM. As for “AngII analog 30a ((o-F)Phe at position 8) (peptide)”, the Gαq activation (GABY BRET sensor, HEK293 cells expressing AT1R), EC50 in test [4] amounted to 1 nM. With “AngII analog 14 (p-tBuPhe at position 8) (peptide)”, the β-arrestin2 recruitment (BRET, HEK293 cells expressing AT1R), EC50 in test [3] is 26 nM. Turning to “AngII analog 23a ((o-CN)Phe at position 8) (peptide)”, in test [7], the Gαq activation (GABY BRET sensor, HEK293 cells expressing AT1R), EC50 was over 10000 nM and the β-arrestin2 recruitment (BRET, HEK293 cells expressing AT1R), EC50 is under 2.5 nM. “AngII analog 30b ((m-F)Phe at position 8) (peptide)” gave a Gαq activation (GABY BRET sensor, HEK293 cells expressing AT1R), EC50 in test [2] of 2.4 nM.

In test [3], “AngII analog 11 (Tyr(Me) at position 8) (peptide)” registered a Gαq activation (GABY BRET sensor, HEK293 cells expressing AT1R), EC50 of 1.1 nM and a β-arrestin2 recruitment (BRET, HEK293 cells expressing AT1R), EC50 of 0.36 nM.

As usually defined, the Ki is the dissociation constant of the complex between target and ligand, obtained from inhibition or displacement.
